Results: patent US20200330588A1

Key:
Assay in all cases: flow cytometry, HEK293 cells transfected with gH alanine mutant and gL; % of gH-positive cells compared to WT
[1] = biological target: gH alanine mutant 478-488 (label as in Table 6)
[2] = biological target: gH alanine mutant 480-481 transfected into HEK293 cells with gL (Human cytomegalovirus (consensus sequence; strain of the construct not stated); Human cytomegalovirus)
[3] = biological target: gH alanine mutant 482-483 transfected into HEK293 cells with gL (Human cytomegalovirus (consensus sequence; strain of the construct not stated); Human cytomegalovirus)
[4] = biological target: gH alanine mutant 484-485 transfected into HEK293 cells with gL (Human cytomegalovirus (consensus sequence; strain of the construct not stated); Human cytomegalovirus)
[5] = biological target: gH alanine mutant 486-487 transfected into HEK293 cells with gL (Human cytomegalovirus (consensus sequence; strain of the construct not stated); Human cytomegalovirus)
[6] = biological target: gH alanine mutant 488-489 transfected into HEK293 cells with gL (Human cytomegalovirus (consensus sequence; strain of the construct not stated); Human cytomegalovirus)
[7] = biological target: gH alanine mutant 490-491 transfected into HEK293 cells with gL (Human cytomegalovirus (consensus sequence; strain of the construct not stated); Human cytomegalovirus)
[8] = biological target: gH mutant 480-486 (consecutive alanine substitutions) transfected into HEK293 cells with gL (Human cytomegalovirus (consensus sequence; strain of the construct not stated); Human cytomegalovirus)
[9] = biological target: gH mutant 485-492 (consecutive alanine substitutions) transfected into HEK293 cells with gL (Human cytomegalovirus (consensus sequence; strain of the construct not stated); Human cytomegalovirus)

## human anti-gH monoclonal antibody MSL-109
[1]
  Avg. binding (% of mass): 100%
[2]
  Avg. binding (% of mass): 87%
[3]
  Avg. binding (% of mass): 92%
[4]
  Avg. binding (% of mass): 86%
[5]
  Avg. binding (% of mass): 66%
[6]
  Avg. binding (% of mass): 111%
[7]
  Avg. binding (% of mass): 89%
[8]
  Avg. binding (% of mass): 66%
[9]
  Avg. binding (% of mass): 65%
